The target in experiment [1] is CXC-motif chemokine ligand 10 (CXCL10) (human) (UniProt P02778).
In experiment [2] the target is P1142 (Amblyomma cajennense). Put plainly: BLI; OctetRed; evasin held on a nickel-coated biosensor by its C-terminal His tag; titration with chemokine from 600 to 0.4 nM; noninteracting reference protein; fit R2 ≥0.96, at least five data points. A general note: BLI is a label-free optical method that tracks binding on a fibre tip over time.
In a further experiment the target is P675 (Ixodes ricinus). The experiment is described as above.
For a further experiment, the target named is P942 (Ixodes ricinus). The description is as above.
Experiment [3] addresses P1126 (Amblyomma cajennense). The experiment is described as above.

A value given as a limit tells only on which side of the number the result lay.

As usually defined, the Kd is a measure of binding affinity in units of concentration. Higher therefore signals weaker binding.

Chain of CXCL11 (O14625 22-94): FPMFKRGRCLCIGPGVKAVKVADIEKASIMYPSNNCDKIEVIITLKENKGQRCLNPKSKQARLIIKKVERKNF

In experiment [1], P1142 (natural protein) showed a neutralization of human CXCL10-induced migration of activated human CD8+ T-cells (Transwell, EC80 dose of CXCL10, P1142 0.015–150 nM); mean IC50 of five biological replicates of 1.85e-09 M.
Regarding “CXC-motif chemokine ligand 10 (CXCL10) (from UniProt P02778 22-98)”, the dissociation constant (Kd) in experiment [2] is < 10 nM; with P675 (Ixodes ricinus), > 100 nM; with P942 (Ixodes ricinus), > 100 nM; in experiment [3], < 10 nM. The target residence time in experiment [2] was > 10 min.
For the substance “CXCL11 (from UniProt O14625 22-94) (ligand)”, the dissociation constant (Kd) in experiment [2] was > 300 nM; in the experiment with P675 (Ixodes ricinus), < 20 nM; in the experiment with P942 (Ixodes ricinus), < 20 nM; in experiment [3], > 300 nM.
Substance EVA3:S5 (from UniProt P0C8E8 70-86) came in with a neutralization of human CXCL8-induced granulocyte migration (Transwell, EC80 dose of CXCL8, EVA3:S5 0.05–200 nM); mean IC50 of four biological replicates with CXCL8 (human) of 3.23e-08 M. The neutralization of human CXCL10-induced migration of activated human CD8+ T-cells (Transwell, EC80 dose of CXCL10, EVA3:S5 0.015–1000 nM); mean IC50 of five biological replicates in experiment [1] was found to be 3.11e-08 M.
